These results are taken from patent US20250027068.

To fix the notation:
B1: PRT-397 (protein)
chain: MVTSVWTKGVTPPADFTQGEDVFHAPYVANQGWYDITKTFNGKDDLLCGAATAGNMLHWWFDQNKEYIEAYLKKHPEKQKIMFGDQELLDVRKAINTKGSQKNSELFNYFRDKAFPNLSARRLGVMPDLVLDMFINGYYLNVTKTQTTDVNRTYQEKDKRGGIFDAVFTRGDQSKLLTSRHDFKEKGLKEISDLIKQELTEGKALGLSHTYANVGINHVINLWGADFDSDGNLKAIYVTDSDSNASIGMKKYFVGVNSAGKVAISAKEIKEDNIGAQVLGLFTLSTGQDIWNQTN
B2: PRT-381 (protein)
chain: MVTSVWTKGVTPPTNFTYGEDVLHAPYVANQGWYDITKTFNGKDDLLCGAATAGNMLHWWFDQNKEQIENYLKKHPEKQKINFNGEQMFDVKEAIDTKDSQLDSKLFEYFKEKAFPYLSTKHLGVFPDHVIDMFINGYRLSLTNHGPTPVKRGSKDPRGGIFDAVFTRGDQSKLLTNRHDFKEKTLKEISDLIKQELTEGKALGISHTYANVRINHVINLWGADFDAEGNLEAIYVTDSDSNPSIGMKKYFVGVNSNGKVAISAKEIEEDNIGAQVLGLFTLSTGQDIWNQTN
B3: PRT-389 (protein)
chain: MVTSVWTKGVTPPTNFTYGEDVLHAPYVANQGWYDITKTFNGKDDLLCGAATAGNMLHWWFDQNKEQIENYLKKHPEKQKINFKGEQMFDVKEAIDTKDSQLDSKLFEYFKEKAFPYLSTKHLGVFPDHVIDMFINGYRLSLTNHGPTPVKRGSKDPRGGIFDAVFTRGDQSKLLTNRHDFKEKTLKEISDLIKQELTEGKALGISHTYANVRINHVINLWGADFDAEGNLEAIYVTDSDSNASIGMKKYFVGVNSNGKVAISAKEIEEDNIGAQVLGLFTLSTGQDIWNQTN
B4: PRT-420 (protein)
chain: MTITSVWTKGVTPPTPEDFRYNNEDVLHAPYVANQGWYDITKTFDGKDNLLCGAATAGNMLHWWFDQNKEEIERYLKKHPEKQKIIFNNQEWFDVKAAIDTKDSQTNSKLFNYFRDKAFPNLSARQLGVMPDLVLDMFINGYYLNLGKTQSTDVNRPYQDKDKRGGIFDAVFTRGDQTTLLTARHDLKNKGLNEISDLIKQELTEGKALALSHTYANVRINHVINLWGADFDAEGNLIAIYVTDSDANASIGMKKYFVGVNANGKVAISAKKIEGDNIGAQVLGLFTLSTGQDIWQKLS
B5: PRT-428 (protein)
chain: MTITSVWTKGVTPPTPEDFRYNNEDVLHAPYVANQGWYDITKTFDGKDNLLCGAATAGNMLHWWFDQNKEEIERYLKKHPEKQKIIFNNQELFDVKAAIDTKDSQTNSKLFNYFRDKAFPNLSARQLGVMPDLVLDMFINGYYLNLGKTQSTDVNRPYQDKDKRGGIFDAVFTRGDQTTLLTARHDLKNKGLNEISDLIKQELTEGKALALSHTYANVRINHVINLWGADFDAEGNLIAIYVTDSDTNASIGMKKYFVGVNANGKVAISAKKIEGDNIGAQVLGLFTLSTGQDIWQKLS

The series deals with pooled human IgG (human IgG1, 2, 3 and 4).
B1 registered an Enzyme Activity Endpoint Assay (purified): Fab′2 of 102 ng/µL, an Enzyme Activity Endpoint Assay (purified): Fc of 243 ng/µL, an Enzyme Activity Endpoint Assay (purified): IgG of 93 ng/µL and an Enzyme Activity Endpoint Assay (purified): scIgG of 498 ng/µL.

With B2, the Enzyme Activity Endpoint Assay (purified): Fab′2 worked out at 486 ng/µL, the Enzyme Activity Endpoint Assay (purified): Fc came out at 334 ng/µL, the Enzyme Activity Endpoint Assay (purified): IgG amounted to 0 ng/µL and the Enzyme Activity Endpoint Assay (purified): scIgG is 194 ng/µL.

B3: the Enzyme Activity Endpoint Assay (purified): Fab′2 is 479 ng/µL, the Enzyme Activity Endpoint Assay (purified): Fc turned out to be 340 ng/µL, the Enzyme Activity Endpoint Assay (purified): IgG stood at 32 ng/µL and the Enzyme Activity Endpoint Assay (purified): scIgG came out at 219 ng/µL.

For the protein B4, the Enzyme Activity Endpoint Assay (purified): Fab′2 came out at 515 ng/µL, the Enzyme Activity Endpoint Assay (purified): Fc worked out at 300 ng/µL, the Enzyme Activity Endpoint Assay (purified): IgG worked out at 125 ng/µL and the Enzyme Activity Endpoint Assay (purified): scIgG was found to be 0 ng/µL.

In turn, B5 returned an Enzyme Activity Endpoint Assay (purified): Fab′2 of 505 ng/µL, an Enzyme Activity Endpoint Assay (purified): Fc of 336 ng/µL, an Enzyme Activity Endpoint Assay (purified): IgG of 90 ng/µL and an Enzyme Activity Endpoint Assay (purified): scIgG of 119 ng/µL.
